Source: patent US20250270343A1 (Alector, published 2025)
Positions count from the first letter of the chain named.

B1: anti-GPNMB antibody GPN-92 (antibody, V domains shown)
VH: QVQLVQSGAEVKKPGASVKVSCKASGYTFTSYWMHWVRQAPGQGLEWMGEINPSDGRTNYAQKFQGRVTMTVDKSTSTVYMELSSLRSEDTAVYYCARSGGNYAWFAYWGQGTLVTVSS
VL: DIVMTQSPDSLAVSLGERATINCKASQDVSPSLAWYQQKPGQPPKLLIYSASYRYTGVPDRFSGSGSGTDFTLTISSLQAEDVAVYYCQQHYSIPLTFGGGTKVEIK
notes: humanized GPN-08
B2: anti-GPNMB antibody GPN-93 (antibody, V domains shown)
VH: B1 VH with S54Y, G56Q, G100T
VL: B1 VL with A25T, Y53K, T97Q
B3: anti-GPNMB antibody GPN-95 (antibody, V domains shown)
VH: B1 VH with S54Y, G56Q, G100T
VL: B1 VL with A25T, S52R, T97Q
notes: also called PGN-95
B4: anti-GPNMB antibody GPN-96 (antibody, V domains shown)
VH: B1 VH with S54Y, G56Q, G100T
VL: B1 VL with S50R
B5: anti-GPNMB antibody GPN-94 (antibody, V domains shown)
VH: B1 VH with S54Y, G56Q, G100T
VL: B1 VL with A25T, Y53K
B6: anti-GPNMB antibody GPN-82 (antibody, V domains shown)
VH: QVQLQESGPGLVKPSETLSLTCTVSGISITTGNYRWSWIRQPPGKGLEWIGYIYYSGTIIYNPSLKSRVTITRDTSKNQFSLELSSVTAADTAVYYCARDLTHWYFDVWGQGTLVTVSS
VL: DIVMTQSPDSLAVSLGERATINCKSSRSVDYYGIGFLNWYQQKPGQPPKLLIYATSTQGSGVPDRFSGSGSGTDFTLTISSLQAEDVAVYYCQQQKEVPPTFGGGTKVEIK

What was measured:
[1] = biological target: T1, soluble cynomolgus GPNMB (recombinant extracellular domain) (cynomolgus, UniProt Q14956 23-499 (human entry), limits assumed); experiment: SPR Biacore, IgG captured
T1 chain: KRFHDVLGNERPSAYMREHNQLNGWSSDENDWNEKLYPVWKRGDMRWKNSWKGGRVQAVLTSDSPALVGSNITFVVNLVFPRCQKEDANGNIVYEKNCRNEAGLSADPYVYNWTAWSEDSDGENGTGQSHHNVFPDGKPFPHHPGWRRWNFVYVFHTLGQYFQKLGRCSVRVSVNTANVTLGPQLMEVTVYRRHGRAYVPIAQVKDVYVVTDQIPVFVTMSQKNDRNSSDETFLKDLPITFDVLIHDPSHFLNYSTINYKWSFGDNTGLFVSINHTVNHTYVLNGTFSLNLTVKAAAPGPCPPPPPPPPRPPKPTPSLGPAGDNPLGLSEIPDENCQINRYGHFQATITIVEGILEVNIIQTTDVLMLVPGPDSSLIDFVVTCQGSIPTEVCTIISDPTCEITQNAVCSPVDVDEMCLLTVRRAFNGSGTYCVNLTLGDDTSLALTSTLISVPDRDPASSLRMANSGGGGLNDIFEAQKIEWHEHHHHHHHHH
Experimental: (§1) Binding kinetics of the humanized and affinity matured anti-GPNMB antibodies described above were evaluated using the Biacore T200 (Cytiva). Briefly, IgGs were diluted to 10 μg/mL and captured using a Protein A/G (ThermioFisher, #21186) surface on a CM5 chip that was prepared by amine coupling according to the instrument manufacturer's recommendations. The captured antibodies were tested for their ability to bind human, cynomolgus monkey, and mouse GPNMB recombinant proteins as follows.
(§2) Human, cynomolgus, and mouse GPNMB analytes were diluted in running buffer (HBS-EP+, Teknova, #8022, with 0.5 mg/ml BSA, MP Biomedicals LLC, #820451), to a concentration of 300 nM, then diluted 3-fold serially to 100 nM, 33 nM, and 11 nM. Each sample was injected for 2 minutes to allow association, followed by dissociation in buffer alone for 10 minutes. Each sample injection was followed by the regeneration of the chip with three 30-second injections of 10 mM glycine, pH 1.7. Fresh antibody was captured at the beginning of each cycle.
(§3) Data were analyzed using Biacore evaluation software to generate kinetic constants. The equilibrium dissociation constants (KD) were calculated from the fitted association and dissociation rate constants (k-on and k-off) for each of the anti-GPNMB antibodies.

[2] = biological target: T2, soluble human GPNMB (recombinant extracellular domain) (human, UniProt Q14956 23-498); experiment: SPR Biacore, IgG captured
T2 construct: also called huGPNMB; recombinant human GPNMB extracellular domain; not shown: C-terminal polyhistidine or Avi-His tag
T2 sequence: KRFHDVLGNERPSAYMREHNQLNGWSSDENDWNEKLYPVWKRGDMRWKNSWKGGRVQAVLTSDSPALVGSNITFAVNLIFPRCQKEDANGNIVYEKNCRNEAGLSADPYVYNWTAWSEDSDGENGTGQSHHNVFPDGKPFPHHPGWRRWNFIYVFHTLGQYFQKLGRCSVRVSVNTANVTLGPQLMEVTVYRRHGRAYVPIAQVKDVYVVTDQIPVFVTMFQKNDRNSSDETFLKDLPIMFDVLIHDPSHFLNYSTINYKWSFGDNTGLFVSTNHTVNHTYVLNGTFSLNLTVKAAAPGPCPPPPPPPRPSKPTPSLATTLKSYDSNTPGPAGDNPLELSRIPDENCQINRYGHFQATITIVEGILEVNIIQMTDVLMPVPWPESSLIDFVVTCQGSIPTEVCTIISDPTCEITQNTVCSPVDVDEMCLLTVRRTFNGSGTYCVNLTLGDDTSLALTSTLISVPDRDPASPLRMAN
Experimental: as §1, §2, §3

[3] = biological target: T3, full-length untagged human GPNMB expressed on cells (human, UniProt Q14956 23-572); experiment: cell-based or functional assay
T3 sequence: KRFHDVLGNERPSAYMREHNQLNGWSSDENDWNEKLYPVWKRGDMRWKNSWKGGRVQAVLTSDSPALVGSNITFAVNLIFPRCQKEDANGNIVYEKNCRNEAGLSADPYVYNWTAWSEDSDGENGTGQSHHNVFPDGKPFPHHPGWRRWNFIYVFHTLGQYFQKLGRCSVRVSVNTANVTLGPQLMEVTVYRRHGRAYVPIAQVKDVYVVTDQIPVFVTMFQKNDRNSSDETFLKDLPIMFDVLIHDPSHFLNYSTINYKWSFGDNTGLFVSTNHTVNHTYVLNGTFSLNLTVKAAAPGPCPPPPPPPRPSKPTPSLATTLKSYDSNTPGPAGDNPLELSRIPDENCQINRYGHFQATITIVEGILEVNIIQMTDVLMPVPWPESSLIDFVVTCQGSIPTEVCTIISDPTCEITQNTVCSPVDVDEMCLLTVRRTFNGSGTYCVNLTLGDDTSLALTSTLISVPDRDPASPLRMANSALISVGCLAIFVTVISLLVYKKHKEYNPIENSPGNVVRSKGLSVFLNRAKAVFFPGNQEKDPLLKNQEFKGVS

[4] = biological target: T3, full-length untagged human GPNMB …; experiment: cell-based or functional assay; remark: listed apart in the source
[5] = biological target: T4, soluble mouse GPNMB (recombinant extracellular domain) (mouse, UniProt Q99P91 23-502); experiment: SPR Biacore T200, IgG captured on Protein A/G; nb = no binding observed
T4 construct: also called moGPNMB; not shown: C-terminal polyhistidine or Avi-His tag
T4 sequence: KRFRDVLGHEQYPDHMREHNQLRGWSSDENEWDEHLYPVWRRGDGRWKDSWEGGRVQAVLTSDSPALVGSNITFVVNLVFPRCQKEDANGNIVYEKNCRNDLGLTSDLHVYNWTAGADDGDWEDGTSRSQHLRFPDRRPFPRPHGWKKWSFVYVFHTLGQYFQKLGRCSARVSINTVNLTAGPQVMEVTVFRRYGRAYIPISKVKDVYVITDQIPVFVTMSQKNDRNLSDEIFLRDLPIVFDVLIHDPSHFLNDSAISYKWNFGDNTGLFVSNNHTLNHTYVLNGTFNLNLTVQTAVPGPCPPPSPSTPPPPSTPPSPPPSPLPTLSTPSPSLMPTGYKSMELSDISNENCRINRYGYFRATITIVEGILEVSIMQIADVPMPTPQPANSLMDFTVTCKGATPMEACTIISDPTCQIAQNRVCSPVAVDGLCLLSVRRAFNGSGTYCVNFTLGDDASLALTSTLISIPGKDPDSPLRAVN

[6] = biological target: T3, full-length untagged human GPNMB …; experiment: cell-based or functional assay; remark: listed apart in the source
[7] = biological target: T3, full-length untagged human GPNMB …; experiment: FACS titration, FS293-huGPNMB+ cells
Experimental: Affinity matured anti-GPNMB antibodies of the present disclosure were examined to determine their ability to bind human and mouse GPNMB expressed on FS293-huGPNMB+ or B16F10 cells, respectively. Cell-based affinity measurements were performed to ascertain the apparent affinities of anti-GPNMB antibodies to cell-surface expressed GPNMB. Serial dilutions of anti-GPNMB antibodies of the present disclosure were added to 100,000 FS293-huGPNMB+ or B16F10 cells and allowed to achieve binding equilibrium at 4° C. After addition of fluorescently labeled secondary antibody and brief washing steps, MFI values as a function of titrated antibody concentration were recorded via FACS analysis. Equilibrium binding curves were fit using nonlinear regression analysis with Graphpad Prism 6 software.

[8] = biological target: T4, soluble mouse GPNMB (recombinant …); experiment: SPR Biacore, IgG captured
Experimental: as §1, §2, §3

Binder | Kd [1] [nM] | koff [1] [s⁻¹] | kon [1] [M⁻¹ s⁻¹] | Kd [2] [nM] | koff [2] [s⁻¹] | kon [2] [M⁻¹ s⁻¹] | EC50 GCase [3] [nM] | Fold Increase GCase (max response at 1 µg/ml) [3] [fold] | EC50 PDL1 [4] [nM] | Fold Increase CD40 (max response at 1 µg/ml) [4] [fold] | Fold Increase PDL1 (max response at 1 µg/ml) [4] [fold] | binding result [5] | Inflammasome: Fold Decrease IL-1β (max response at 0.3 µg/ml) [6] [fold] | EC50 [7] [nM] | Kd [8] [nM] | koff [8] [s⁻¹] | kon [8] [M⁻¹ s⁻¹] | EC50 Lyso Tracker [3] [nM] | Fold Decrease Lyso Tracker (max response at 1 µg/ml) [3] [fold]
B1 | 67.8 | 0.0057 | 83000 | 66.5 | 0.005 | 75000 | 0.27 | 1.25 | 1.36 | 1.59 | 1.99 | no binding (tested: 300 nM highest analyte concentration) |  |  |  |  |  |  | 
B2 | 10.6 | 0.00071 | 67000 | 8.7 | 0.00059 | 68000 | 0.5 | 1.45 |  | 1.87 | 2.18 | no binding (tested: 300 nM highest analyte concentration) | 0.594 | 0.568 |  |  |  |  | 
B3 | 8.3 | 0.0006 | 71000 | 7.3 | 0.00053 | 73000 | 0.23 | 1.33 | 0.7 | 1.74 | 1.97 | no binding (tested: 300 nM highest analyte concentration) | 0.45 | 0.181 |  |  |  |  | 
B4 | 3.2 | 0.00025 | 77000 | 2.5 | 0.0002 | 78000 | 0.23 | 1.31 | 0.58 | 1.72 | 1.9 | no binding (tested: 300 nM highest analyte concentration) | 0.525 | 0.652 |  |  |  |  | 
B5 | 6.5 | 0.00051 | 78000 | 5.4 | 0.00042 | 78000 | 0.54 | 1.4 | 1.14 | 1.72 | 1.88 | no binding (tested: 300 nM highest analyte concentration) | 0.532 | 0.186 |  |  |  |  | 
B6 | 13.5 | 0.0022 | 160000 | 11.9 | 0.0024 | 200000 | 0.365 | 1.54 | 1.94 | 2.29 | 4.6 |  | 0.378 |  | 2.6 | 0.00039 | 150000 | 0.64 | 0.569
